B1: FLAG-HMK-IL-2Rβ chain WT: bacterially produced fusion protein: FLAG epitope, HMK site and wild type IL-2Rβ chain cytoplasmic domain (protein)
chain: NCRNTGPWLKKVLKCNTPDPSKFFSQLSSEHGGDVQKWLSSPFPSSSFSPGGLAPEISPLEVLERDKVTQLLLQQDKVPEPASLSSNHSLTSCFTNQGYFFFHLPDALEIEACQVYFTYDPYSEEDPDEGVAGAPTGSSPQPLQPLSGEDDAYCTFPSRDDLLLFSPSLLGGPSPPSTAPGGSGAGEERMPPSLQERVPRDWDPQPLGPPTPGVPDLVDFQPPPELVLREAGEEVPDAGPREGVSFPWSRPPGQGEFRALNARLPLNTDAYLSLQELQGQDPTHLV
modifications: left off: small tags and cut ends
B2: IL-2Rβ-WT: human IL-2Rβ chain wild type expressed in COS cells from pRcCMV (protein)
chain: AVNGTSQFTCFYNSRANISCVWSQDGALQDTSCQVHAWPDRRRWNQTCELLPVSQASWACNLILGAPDSQKLTTVDIVTLRVLCREGVRWRVMAIQDFKPFENLRLMAPISLQVVHVETHRCNISWEISQASHYFERHLEFEARTLSPGHTWEEAPLLTLKQKQEWICLETLTPDTQYEFQVRVKPLQGEFTTWSPWSQPLAFRTKPAALGKDTIPWLGHLLVGLSGAFGFIILVYLLINCRNTGPWLKKVLKCNTPDPSKFFSQLSSEHGGDVQKWLSSPFPSSSFSPGGLAPEISPLEVLERDKVTQLLLQQDKVPEPASLSSNHSLTSCFTNQGYFFFHLPDALEIEACQVYFTYDPYSEEDPDEGVAGAPTGSSPQPLQPLSGEDDAYCTFPSRDDLLLFSPSLLGGPSPPSTAPGGSGAGEERMPPSLQERVPRDWDPQPLGPPTPGVPDLVDFQPPPELVLREAGEEVPDAGPREGVSFPWSRPPGQGEFRALNARLPLNTDAYLSLQELQGQDPTHLV

Tests used:
[1] = biological target: T1, Raf-1 proteins present in T-cell lysates (Homo sapiens, UniProt P04049); test: Cell-free system: binding of Raf-1 from T-cell lysates to FLAG-HMK-IL-2Rβ chain fusion proteins on anti-FLAG beads, anti-Raf-1 immunoblot
T1 construct: endogenous in cells; host or cells: PHA-stimulated human peripheral blood mononuclear cells (T cells), lysate
Description: (ii) In order to study the interaction of IL-2Rβ chain with intracellular molecules, the FLAG-HMK-IL-2Rβ chain cytoplasmic domain fusion protein was purified from bacterial lysate using the M2 anti-FLAG monoclonal antibody in a standard affinity chromatography procedure. More specifically, bacterial lysate proteins were absorbed onto anti-FLAG (M2) affinity column (IBI-Kodak, New Haven, Conn., USA). After washing the column, the adsorbed proteins were eluted with either glycine buffer (pH 3) or FLAG peptide (10^−4M). Proteins in various fractions were analyzed for expected size (about 33 kDa) and purity after separation on SDS-PAGE and Commassie blue staining. The presence of a functional HMK recognition site was confirmed by phosphorylation of the purified 33 kDa IL-2Rβ chain fusion protein by HMK. More specifically, the eluted fusion proteins were tested for susceptibility to phosphorylation by incubation with the catalytic subunit of bovine heart muscle kinase (Sigma) (1 U/ul) in buffer containing 20 mM Tric-HCl, pH 7.5, 1 mM DTT, 100 mM NaCl, 10 mM MgCl2 and 1μCi [γ^32p] ATP for 30 min at 37° C. followed by SDS-PAGE and autoradiography. Purified FLAG-HMK-IL-2Rβ chain fusion proteins were used as an affinity reagent to probe for cytosolic proteins present in lysates of human T cells, metabolically labeled with [^35S ]-methionine, that bind to the IL-2Rβ chain. […] For [^35S]-methionine labeling, the cells were suspended at 4×10^7 cells/ml at 37° C. followed by addition of 0.5 mCi of [^35S]-methionine for 4 hours prior to lysis in Dounce homogenization buffer and application of the lysate to the affinity column. Several [^35S]-labeled proteins were retained by the FLAG-HMK-IL-2Rβ chain cytosolic domain fusion protein bound to the affinity column. One of these proteins was identified as Raf-1 by immunoblotting using a polyclonal antibody specific for the SP-63 peptide which corresponds to the C-terminal fragment of Raf-1. A molar excess of the competing SP-63 peptide blocked binding of the anti-SP-63 antibody to Raf-1.
Using the basic cell-free system described above, a number of FLAG-HMK-IL-2Rβ chain wild type FLAG-HMK-IL2Rβ chain deletion mutant proteins were then studied with respect to this specific interaction with Raf-i proteins present in T-cell lysates. These FLAG-HMK-IL2Rβ chain wild type (WT) and deletion mutants lacking certain defined domains of the IL-2Rβ chain were used to identify the IL-2Rβ chain domain involved in Raf-1 binding. Assay conditions were similar to those described above. […] In FIG. 1, there is shown, schematically, all of the constructs, i.e., FLAG-HMK-IL-2Rβ chain fusion proteins produced in transformed bacterial cells and used in this study. These FLAG-HMK- fusion proteins-coated beads were then used as affinity reagents to absorb Raf-1 proteins present in T-cell lysates. T-cell derived proteins bound to FLAG-HMK fusion proteins were then eluted using buffer containing FLAG peptide, separated on SDS-PAGE, transferred onto Immobilon membrane and blotted with anti-Raf-1 antibody.
The absorbed proteins were washed, eluted with FLAG peptide and probed for the presence of Raf-1 and 14-3-3 proteins on immunoblots. […] Washed cells (about 4×10^7) were lysed in Dounce homogenization buffer, centrifuged (15×10^3 xg for 15 min.) and supernatants applied onto washed anti-FLAG (M2) affinity column (IBI-Kodak) coated with bacterial lysates interacted with one of the FLAG-HMK fusion proteins. […]

[2] = biological target: T2, (His)6-Raf-1 (Homo sapiens, UniProt P04049); test: Totally cell-free system: binding of bacterially produced (His)6-Raf-1 to FLAG-HMK-IL-2Rβ chain fusion proteins, anti-Raf-1 immunoblot; conditions: anti-Raf-1 immunoblot
T2 construct: made in house; host or cells: M15 bacteria (E. coli), pQE-30
Method: For the construction of the (His)6-Raf-1 expression plasmid, PCR was performed using the […] cDNA as template and oligonucleotide primers designed to facilitate cloning into the pQE-30 plasmid according to the manufacturer's protocol (QIAGEN, QIAexpressionist; Chatsworth, CA). (His)6-Raf-1 protein was produced in M15 bacteria by IPTG induction, and purified on Ni-NTA resin (QIAGEN). Affinity purification yielded a 72-74 kD protein which was recognized by anti Raf-1 antibody.
Accordingly, in this totally cell-free assay, FLAG-HMK-IL-2Rβ chain wild type and deletion mutants lacking at least one of several defined domains of the IL-2Rβ chain (see Example 1) were used to identify the IL-2Rβ chain domain involved in Raf-1 binding. Assay conditions were similar to those described in Example 1. Briefly, bacterially produced proteins: FLAG-HMK-IL-2Rβ chain wild type (WT), FLAG-HMK-IL-2Rβ chain containing only proline rich C-terminal (CT^+), FLAG-HMK-IL-2Rβ chain mutants lacking:serine rich region (S^−), acidic domain (A^−), acidic domain and proline rich C-terminal (A^−CT^−) were incubated with bacterially produced (His)6-Raf-1 (for all constructs see FIG. 1) followed by adsorption of FLAG-HMK-IL-2Rβ chain/Raf-1 complexes on anti-FLAG affinity beads. After extensive washing, IL-2Rβ chain/Raf-1 complexes were competitively eluted from anti-FLAG beads using buffer containing FLAG peptide. Eluted proteins were separated on SDS-PAGE, transferred onto Immobilon membrane and blotted with anti-Raf-1 antibody.

[3] = system: T-cell derived, active serine/threonine kinase; test: Protein kinase reaction on anti-FLAG beads coated with FLAG-HMK-IL-2Rβ chain proteins and exposed to T-cell lysates; assay type: biochemical, human
Description: FLAG-HMK-IL-2Rβ chain wild type and deletional mutants lacking certain defined domains of the IL-2Rβ chain (see Examples 1 and 2 and FIG. 1) were used to identify IL-2Rβ chain domain involved in binding T-cell derived, active serine/threonine kinase. Assay conditions were similar to those noted above. […] FLAG-HMK- fusion proteins coated beads were further used as affinity reagents to absorb proteins present in T-cell lysates. T-cell derived proteins bound to FLAG-MHK fusion proteins were then tested for serine/threonine kinase activity in the absence or presence of exogenous substrates: Histone H-1 or (His),-Mek-1. Products of kinase reactions were boiled in SDS-PAGE sample buffer followed by separation on SDS-PAGE, transfer onto Immobilon membrane and autoradiography. The following are the experiments that were carried out and their results: […]

[4] = biological target: T2, (His)6-Raf-1; test: Kinase activity toward Mek-1 after interaction of FLAG-HMK-IL-2Rβ chain with bacterially produced (His)6-Raf-1; assay type: biochemical; conditions: interaction with (His)6-Raf-1; enzymatically inactive (His)6-Mek-1 substrate
Method: Bacterial lysates containing FLAG-HMK-IL-2Rβ chain wild type and (His)6-Raf-1 proteins were used (see Example 2) to test the hypothesis that the IL-2Rβ chain induces catalytic activity of Raf-1. Assay conditions were similar to those described above. Briefly, bacterially produced proteins: FLAG-HMK-IL-2Rβ chain wild type (WT) or FLAG-HMK (negative control) (for all constructs see FIG. 1) were incubated with bacterial lysates containing either (His)6-Raf-1 or (His)6 (negative control) followed by the absorption of protein complexes on anti-FLAG affinity beads. […] Products of kinase reactions were boiled in SDS-PAGE sample buffer followed by separation on SDS-PAGE, transfer onto Immobilon membrane and autoradiography.

[5] = system: Raf-1; test: COS cells transfected with IL-2Rβ chain constructs, immunoprecipitated with Mik-β1, blotted with anti-Raf-1; assay type: cell-based; conditions: transfected COS cell lysates, FIG. 8a
Method: (§1) COS cells were transfected via the DOTAP method (Boehringer-Mannheim, Indianapolis, Ind.) following the manufacturer's instructions. The transfection cocktail contained 5 μg of DNA total and […] of DOTAP in a final volume of […] HBS (25mM HEPES, pH 7.4 and lOOmM NaCl). The COS cells were grown in DMEM medium supplemented with 10% heat-inactivated fetal calf serum, penicillin/streptomycin, 25mM HEPES, pH 7.4, and L-glutamine. The COS cells were exposed to the transfection cocktail for 12 hours, washed and subsequently cultured in fresh medium. 24 hours after washing approximately 3×10^5 cells were harvested and washed twice in chilled PBS. A lysis buffer was prepared and consisted of […] NaCl, 50mM Tris pH=7.4, 0.5% CHAPS (Pierce), […] (Sigma), supplemented with the following protease inhibitors immediately before use: aprotinin (Sigma) 2.5mg/ml, leupeptin (Boehringer-Mannheim) 2.5 mg/ml; Pepstatin A (Boehringer-Mannheim) […], PMSF (Sigma) […], NaF (Sigma) 100mm and sodium orthovanadate (Sigma) lmM. The transfected COS cells were lysed in 0.5 ml of lysis buffer on ice for 10 minutes, and subsequently centrifuged at 12,000 xg for 5 minutes, remaining supernatants were collected, and supplemented with pre-immune serum and protein G-agarose beads (BRL-Gibco, Gaithersburg, MD), which had been previously washed in lysis buffer. […]

[6] = system: 14-3-3 proteins; test: COS cells transfected with IL-2Rβ chain constructs, immunoprecipitated with Mik-β1, blotted with anti-14-3-3; assay type: cell-based; conditions: transfected COS cell lysates, FIG. 8a
Method: as §1

| Molecule | binding of T-cell derived Raf-1 proteins ([1]; affinity beads coated with fusion protein, T-cell lysates, anti-Raf-1 immunoblot) | binding of Raf-1 proteins [2] | level of (His)6-Mek-1 kinase phosphorylation ([3]; kinase defective (His)6-Mek-1 as substrate) | serine/threonine kinase activity, phosphorylation of p70 protein ([3]; no exogenously added substrate) | induction of kinase activity toward Mek-1 kinase [4] | binding to Raf-1 ([1]; lysates from PHA activated peripheral blood mononuclear cells, FIG. 8b) | binding of Raf-1 [5] | binding of 14-3-3 proteins [6] |
| --- | --- | --- | --- | --- | --- | --- | --- | --- |
| B1 | bind T-cell derived Raf-1 proteins equally well | bind Raf-1 proteins equally well | increase | bind T-cell derived protein(s) expressing serine/threonine kinase activity | did not result in the induction of kinase activity | – | – | – |
| B2 | – | – | – | – | – | bound to Raf-1 | bound | bound |

Reference: patent publication US20010016194A1 (priority 1999, published 2001)
